B1: TEKT4 (parent)
chain: SEVEELNMSLTALREKLLEAEQSL
B2: CAMK2A (parent)
chain: CIQQILEAVLHCHQMGVVHRDLKP

Variants of: B1
Experiment: protein stability index of a GFP-peptide fusion (GPS, HEK-293T) (PSI 1-6); higher = more stable
Conditions: c terminus: a fixed tail appended
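Also: lentivirally expressed fusions sorted by FACS into six bins by GFP to DsRed ratio, PSI derived from sequencing read proportions per bin multiplied by bin number.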

Protein stability index of substitutions, site by site:
A20: G 4.88 | H 3.93 | I 3.55 | K 4.9 | L 3.98 | M 3.73 | N 4.52 | P 4.76 | Q 4.32 | R 4.28 | S 4.18 | T 4.26 | V 4.41 | W 2.95 | Y 3.88
E21: A 2.8 | C 2.23 | D 4.83 | F 2.62 | G 3.51 | H 3.06 | I 2.06 | K 3.42 | L 2.81 | M 3.16 | N 3.34 | P 2.45 | Q 3.44 | R 3.26 | S 2.94 | T 2.97 | V 2.36 | W 2.36 | Y 2.77
Q22: A 2.81 | C 2.37 | D 2.48 | E 3.37 | F 1.75 | G 3.6 | H 2.5 | I 1.72 | K 3.36 | L 1.96 | M 1.91 | N 2.54 | P 3.99 | R 2.64 | S 3.44 | T 3.64 | V 2.23 | W 1.89 | Y 1.94
S23: A 2.47 | C 2.39 | D 3.36 | E 3.93 | F 2.48 | G 3.66 | H 2.31 | I 2.74 | K 3.17 | L 2.37 | M 2.74 | N 3.21 | P 4.45 | Q 2.72 | R 2.9 | T 2.77 | V 2.87 | W 2.75 | Y 2.33
L24: A 4.18 | C 3.82 | D 5.19 | E 4.69 | F 4.51 | G 5.01 | H 4.41 | I 3.1 | K 5.14 | M 4.18 | N 4.97 | P 4.99 | Q 4.78 | R 4.23 | S 4.63 | T 4.97 | V 2.25 | W 3.74 | Y 3.82

Variants of: B2
Experiment: as above
Conditions: c terminus: a fixed tail appended

Protein stability index: each site, then its substitutions
C1: D 2.12 | F 3.55 | H 1.56 | I 3.46 | K 2.82 | L 3.19 | M 4.15 | Q 1.13 | R 2.22 | T 2.82 | V 2.22 | W 1.78 | Y 2.37
I2: A 2.45 | C 3.15 | D 2.09 | E 1.78 | G 1.99 | H 1.68 | K 1.22 | N 1.32 | P 2.07 | Q 1.72 | R 2.21 | S 1.56 | T 1.79 | V 2.74 | W 1.35
Q3: A 3.85 | C 3.04 | D 3.17 | F 2.24 | G 3.91 | H 3.11 | I 2.81 | K 2.77 | P 3.19 | T 3.42 | V 3.85 | Y 3.67
Q4: A 1.96 | D 2.04 | G 5.02 | H 2.13 | K 1.93 | L 2.55 | M 1.92 | N 2.68 | P 1.69 | R 2.94 | T 2.74 | Y 2.07
I5: A 4.67 | C 3.12 | D 2.65 | E 2.3 | F 2.79 | H 2.44 | K 2.16 | M 4.53 | N 1.71 | P 1.81 | Q 1.73 | R 2.2 | S 1.69 | T 2.89 | W 2.01
L6: A 1.4 | C 1.84 | D 2.93 | E 2.44 | F 1.07 | G 2.14 | H 1.77 | I 2.64 | K 2.4 | M 2.75 | N 1.98 | P 1.83 | Q 2.09 | R 1.97 | S 1.71 | T 1.69 | V 2.88 | W 1.87 | Y 2.13
E7: A 2.02 | C 3.72 | D 3.99 | F 2.42 | G 4.42 | I 2.74 | K 2.25 | M 4.26 | Q 2.55 | R 2.81 | S 2.57 | T 1.99 | V 1.8 | W 2.78 | Y 4.43
A8: C 2.57 | D 2.04 | F 3.18 | G 3.6 | H 2.39 | K 2.86 | M 3.63 | P 2.9 | Q 2.42 | R 1.5 | T 3.67 | V 2.26 | W 4.4 | Y 2.54
V9: A 1.86 | C 2.82 | D 1.83 | E 1.87 | G 2 | H 2.35 | I 2.04 | K 1.72 | L 3.23 | M 2.92 | N 1.96 | P 1.26 | Q 1.96 | R 2.01 | T 2.86 | W 2.45 | Y 3.08
L10: A 1.35 | D 1.95 | E 1.53 | F 2.72 | G 1.67 | H 2.19 | K 1.9 | M 3.74 | N 2.05 | P 1.66 | Q 2.19 | R 2.37 | S 2.21 | T 2.11 | V 3.33 | W 4.24
H11: C 2.39 | D 3.55 | E 2.91 | F 3.5 | I 3.32 | K 1.72 | M 4.07 | N 2.4 | P 1.69 | Q 1.9 | S 2.86 | T 2.39 | V 1.53
C12: A 2.34 | D 1.54 | E 2.58 | G 1.18 | H 2.98 | I 2.66 | K 1.82 | L 3.33 | M 2.79 | N 3.26 | P 1.53 | R 4.86 | T 2.74 | V 2.82 | W 2.65 | Y 3.8
H13: C 2.35 | D 2.57 | E 2.49 | F 1.28 | G 3.66 | I 2.85 | K 1.73 | M 2.07 | N 2.28 | Q 1.22 | R 1.55 | W 1.27 | Y 3.92
Q14: A 2.29 | C 2.78 | D 3.09 | E 3.49 | F 2.94 | H 2.38 | I 2.86 | K 3.21 | L 3.6 | N 1.28 | P 2 | R 1.94 | S 2.83 | T 3.88 | W 2.76 | Y 3.42
M15: C 2.85 | D 1.8 | E 2.68 | F 1.84 | G 2.05 | H 2.24 | I 2.31 | K 2.42 | N 1.52 | P 1.81 | Q 1.22 | S 2.6 | V 2.57 | W 3.1 | Y 2.85
G16: C 2.97 | D 2.41 | E 3.1 | H 2.16 | I 2.24 | K 1.11 | M 3.07 | N 3.04 | P 2.69 | Q 3.06 | R 1.6 | V 1.3 | W 1.79 | Y 1.91
V17: A 1.8 | C 2.21 | D 2.57 | E 2.01 | F 1.59 | G 3.75 | H 1.99 | I 1.95
